Results on 76 sequences are retold here after the supplement of paper PMC7877785.

± gives the uncertainty stated by the source.

The series is described as follows: self-splicing fitness, log relative to wild type (ln ratio); higher = more splicing; Tetrahymena group I intron in knt gene, E. coli kanamycin selection, DiMSum; sequences stand for … in CUCUCU…GGAGGGAAAAGUUAUCAGGCAUGCACCUGGUAGCUAGUCUUUAAACCAAUAGAUUGCAUCGGUUUAAAAGGCAAGACCGUCAAAUUGCGGGAAAGGGGUCAACAGCCGUUCAGUACCAAGUCUCAGGGGAAACUUUGAGAUGGCCUUGCAAAGGGUAUGGUAAUAAGCUGACGGACAUGGUCCUAACCACGCAGCCAAGUCCUAAGUCAACAGAUCUUCUGUUGAUAUGGAUGCAGUUCACAGACUAAAUGUCGGUCGGGGAAGAUGUAUUCUUCUCAUAAGAUAUAGUCGGACCUCUCCUUAAUGGGAGCUAGCGGAUGAAGUGAUGCAACACUGGAGCCGCUGGGAACUAAUUUGUAUGCGAAAGUAUAUUGAUUAGUUUUGGAGUACUCGUGGUCG
A digest of the protocol: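 Library with all eight P1ex-region intron nucleotides randomised, intron inside the knt kanamycin-resistance gene on pET-22b(+), in E. coli BL21(DE3). Cells grew overnight at 37°C or 30°C on LB agar with or without 25 μg/mL kanamycin (plus 100 μg/mL carbenicillin, 50 μM IPTG, 0.2% rhamnose), in six replicate transformations. Pooled colonies were amplicon-sequenced on Illumina HiSeq 2500. DiMSum fitness is the error-weighted combination of wild-type-normalised replicate fold changes, kanamycin versus none.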

In the case of CCACAGCAAUAUUACGAAAC, the “self-splicing fitness (ln)” value was -2.27 ± 0.29 (30 °C) and -1.8 ± 0.34 (37 °C).
Consider CCACAGCAAUAUUACGAAAG, for which the “self-splicing fitness (ln)” value reads like this: (30 °C) -1.55 ± 0.066; (37 °C) -0.182 ± 0.082.
For CCACAGCAAUAUUACGACGG the same measures were -3.63 ± 0.12 and -1.63 ± 0.1.
Consider CCACAGCAAUAUUACGAGAU, for which the “self-splicing fitness (ln)” value is -3.37 ± 0.14 (30 °C) and -1.65 ± 0.14 (37 °C).
For CCACAGCAAUAUUACGAGCA the same measures were -3.6 ± 0.18 and -2.89 ± 0.19.
In the same order, the values of CCACAGCAAUAUUACGAUAG are -1.17 ± 0.065 and 0.206 ± 0.084.
Turning to CCACAGCAAUAUUACGAUGC, the “self-splicing fitness (ln)” value is, setting by setting: (30 °C) -3.7 ± 0.17; (37 °C) -2.66 ± 0.21.
Consider CCACAGCAAUAUUACGAUGG, for which the “self-splicing fitness (ln)” value (30 °C) was -4.02 ± 0.14 and the “self-splicing fitness (ln)” value (37 °C) was -2.5 ± 0.13.
In the same order, the values of CCACAGCAAUAUUACGCAGC are -3.88 ± 0.22 and -2.83 ± 0.25.
For CCACAGCAAUAUUACGCCAA the same measures were -2.96 ± 0.2 and -2.1 ± 0.23.
For CCACAGCAAUAUUACGCCAC the same measures were -3.52 ± 0.27 and -2.54 ± 0.27.
As to CCACAGCAAUAUUACGCCGC, the “self-splicing fitness (ln)” value (30 °C) is -3.12 ± 0.21 and the “self-splicing fitness (ln)” value (37 °C) is -3.49 ± 0.27.
In the case of CCACAGCAAUAUUACGCGGC, the “self-splicing fitness (ln)” value by setting is: (30 °C) -3.19 ± 0.24; (37 °C) -3.09 ± 0.35.
CCACAGCAAUAUUACGGACA: the “self-splicing fitness (ln)” value runs as follows: (30 °C) -3.12 ± 0.21; (37 °C) -2.51 ± 0.18.
For CCACAGCAAUAUUACGGAGG the same measures were -3.92 ± 0.22 and -1.16 ± 0.12.
For CCACAGCAAUAUUACGGCAC the same measures were -4.06 ± 0.21 and -2.87 ± 0.22.
With CCACAGCAAUAUUACGUAAC, the “self-splicing fitness (ln)” value is, setting by setting: (30 °C) -3.47 ± 0.2; (37 °C) -1.35 ± 0.16.
In the same order, the values of CCACAGCAAUAUUACGUCAA are -2.92 ± 0.15 and -2.22 ± 0.21.
Consider CCACAGCAAUAUUACGUCUA, for which the “self-splicing fitness (ln)” value is -3.53 ± 0.24 (30 °C) and -2.43 ± 0.17 (37 °C).
In the case of CCACAGCAAUAUUACGUGCG, the “self-splicing fitness (ln)” value runs as follows: (30 °C) -2.79 ± 0.11; (37 °C) -1.72 ± 0.12.
For the sequence CCAGAGCAAUAUUACGCACC, the “self-splicing fitness (ln)” value (37 °C) is -2.37 ± 0.34.
For the sequence CCAGAGCAAUAUUACGCAGC, the “self-splicing fitness (ln)” value reads like this: (30 °C) -3.64 ± 0.28; (37 °C) -1.77 ± 0.24.
For CCAGAGCAAUAUUACGCGGC the same measures were -3.88 ± 0.39 and -2.96 ± 0.24.
For CCAGAGCAAUAUUACGCUGU, the “self-splicing fitness (ln)” value (30 °C) is -3.95 ± 0.44.
On to CCAGAGCAAUAUUACGGAAG, for which the “self-splicing fitness (ln)” value is, setting by setting: (30 °C) -2.32 ± 0.13; (37 °C) -2.1 ± 0.19.
In the same order, the values of CCAGAGCAAUAUUACGGCAC are -3.21 ± 0.32 and -2.73 ± 0.27.
Consider CCAGAGCAAUAUUACGGUAG, for which the “self-splicing fitness (ln)” value by setting is: (30 °C) -2.14 ± 0.11; (37 °C) -2.34 ± 0.2.
For CCAGAGCAAUAUUACGGUAU the same measures were -3.47 ± 0.2 and -2.75 ± 0.26.
For CCAGAGCAAUAUUACGGUCC the same measures were -3.93 ± 0.33 and -1.51 ± 0.34.
For CCAGAGCAAUAUUACGUAGU, the “self-splicing fitness (ln)” value was -4.61 ± 0.22 (30 °C) and -2.87 ± 0.21 (37 °C).
For CCAGAGCAAUAUUACGUCAA the same measures were -4.08 ± 0.39 and -2.3 ± 0.35.
In the same order, the values of CCAGAGCAAUAUUACGUCCU are -4.05 ± 0.22 and -2.48 ± 0.25.
Consider CCAGAGCAAUAUUACGUCGU, for which the “self-splicing fitness (ln)” value reads like this: (30 °C) -3.93 ± 0.24; (37 °C) -2.19 ± 0.21.
In the same order, the values of CCAGAGCAAUAUUACGUGGC are -1.95 ± 0.18 and -3.77 ± 0.39.
For CCAGAGCAAUAUUACGUUAA the same measures were -4.07 ± 0.37 and -2.91 ± 0.29.
In the same order, the values of CCAUAGCAAUAUUACGAAGU are -3.61 ± 0.21 and -2.64 ± 0.22.
Consider CCAUAGCAAUAUUACGAAUC, for which the “self-splicing fitness (ln)” value is, setting by setting: (30 °C) -3.22 ± 0.14; (37 °C) -1.38 ± 0.17.
As for CCAUAGCAAUAUUACGACCA, the “self-splicing fitness (ln)” value (30 °C) was -2.52 ± 0.46.
As to CCAUAGCAAUAUUACGACCU, the “self-splicing fitness (ln)” value reads like this: (30 °C) -2.92 ± 0.33; (37 °C) -1.28 ± 0.41.
For CCAUAGCAAUAUUACGACGA the same measures were -3.14 ± 0.21 and -1.42 ± 0.14.
For CCAUAGCAAUAUUACGACGC the same measures were -2.27 ± 0.26 and -2.51 ± 0.39.
Turning to CCAUAGCAAUAUUACGAGAC, the “self-splicing fitness (ln)” value is -3.58 ± 0.3 (30 °C) and -0.492 ± 0.17 (37 °C).
Consider CCAUAGCAAUAUUACGAGAG, for which the “self-splicing fitness (ln)” value runs as follows: (30 °C) -3.57 ± 0.16; (37 °C) -2.56 ± 0.14.
In the same order, the values of CCAUAGCAAUAUUACGAGCG are -0.63 ± 0.095 and -2.73e-06 ± 0.12.
For CCAUAGCAAUAUUACGAUCG the same measures were -0.244 ± 0.053 and 0.361 ± 0.081.
As for CCAUAGCAAUAUUACGCAAU, the “self-splicing fitness (ln)” value by setting is: (30 °C) -3.67 ± 0.15; (37 °C) -2.64 ± 0.15.
In the same order, the values of CCAUAGCAAUAUUACGCAGU are -2.94 ± 0.14 and -3.37 ± 0.42.
Turning to CCAUAGCAAUAUUACGCCCG, the “self-splicing fitness (ln)” value reads like this: (30 °C) -0.369 ± 0.16; (37 °C) 0.418 ± 0.21.
For CCAUAGCAAUAUUACGCGAC the same measures were -3.56 ± 0.13 and -2.9 ± 0.18.
Turning to CCAUAGCAAUAUUACGCUCU, the “self-splicing fitness (ln)” value by setting is: (30 °C) -4.23 ± 0.3; (37 °C) -2.85 ± 0.24.
In the case of CCAUAGCAAUAUUACGGAAG, the “self-splicing fitness (ln)” value reads like this: (30 °C) -3.19 ± 0.16; (37 °C) -1.67 ± 0.14.
In the same order, the values of CCAUAGCAAUAUUACGGACA are -3.36 ± 0.23 and -1.14 ± 0.16.
With CCAUAGCAAUAUUACGGAGU, the “self-splicing fitness (ln)” value was -4 ± 0.29 (30 °C) and -2.42 ± 0.17 (37 °C).
For CCAUAGCAAUAUUACGGGGA the same measures were -2.97 ± 0.18 and -2.68 ± 0.22.
For CCAUAGCAAUAUUACGGGUC the same measures were -3.41 ± 0.35 and -2.23 ± 0.23.
For CCAUAGCAAUAUUACGGUAC the same measures were -3.2 ± 0.19 and -3.05 ± 0.27.
In the case of CCAUAGCAAUAUUACGGUGU, the “self-splicing fitness (ln)” value was -4.24 ± 0.17 (30 °C) and -2.58 ± 0.15 (37 °C).
For CCAUAGCAAUAUUACGGUUU the same measures were -4.54 ± 0.25 and -2.79 ± 0.21.
For CCAUAGCAAUAUUACGUAUA the same measures were -3.89 ± 0.3 and -1.46 ± 0.17.
For CCAUAGCAAUAUUACGUCAA the same measures were -4.82 ± 0.41 and -0.857 ± 0.17.
Regarding CCAUAGCAAUAUUACGUCGC, the “self-splicing fitness (ln)” value was -3.46 ± 0.22 (30 °C) and -3.74 ± 0.31 (37 °C).
In the same order, the values of CCAUAGCAAUAUUACGUGAC are -2.57 ± 0.13 and -2.79 ± 0.3.
Consider CCAUAGCAAUAUUACGUGCC, for which the “self-splicing fitness (ln)” value (37 °C) is -2.41 ± 0.41.
As for CCAUAGCAAUAUUACGUUAC, the “self-splicing fitness (ln)” value by setting is: (30 °C) -2.14 ± 0.17; (37 °C) -3.54 ± 0.47.
Take CCAUAGCAAUAUUACGUUGC: the “self-splicing fitness (ln)” value is -4.15 ± 0.22 (30 °C) and -2.52 ± 0.23 (37 °C).
For CCCAAGCAAUAUUACGAGAA the same measures were -3.57 ± 0.33 and -2.87 ± 0.28.
For CCCAAGCAAUAUUACGAGUA the same measures were -4.12 ± 0.18 and -2.5 ± 0.14.
In the same order, the values of CCCAAGCAAUAUUACGAUCU are -2.73 ± 0.14 and -3.53 ± 0.27.
For CCCAAGCAAUAUUACGCAGG, the “self-splicing fitness (ln)” value is -2.94 ± 0.2 (30 °C) and -2.7 ± 0.48 (37 °C).
For CCCAAGCAAUAUUACGCCGC the same measures were -2.08 ± 0.37 and -1.07 ± 0.4.
For CCCAAGCAAUAUUACGCGUA the same measures were -3.43 ± 0.2 and -1.29 ± 0.17.
Consider CCCAAGCAAUAUUACGGUCU, for which the “self-splicing fitness (ln)” value is -4.2 ± 0.2 (30 °C) and -2.64 ± 0.14 (37 °C).
For CCCAAGCAAUAUUACGUAAA the same measures were -4.05 ± 0.33 and -3.46 ± 0.39.
In the same order, the values of CCCAAGCAAUAUUACGUAUA are -2.91 ± 0.23 and -3.24 ± 0.23.
In the same order, the values of CCCAAGCAAUAUUACGUAUG are -4.01 ± 0.15 and -1.47 ± 0.11.
As for CCCAAGCAAUAUUACGUGCA, the “self-splicing fitness (ln)” value was -3.83 ± 0.23 (30 °C) and -2.57 ± 0.16 (37 °C).
